This data set concerns the target tau381 (1N3R as printed) (human, UniProt P10636-4 1-381). As to the kind of experiment: electrochemical aptasensor (DPV, EIS); aptamer immobilized on Au NP/thionin/carboxyl graphene GCE; linear 1.0-100 pM, LOD 0.70 pM (sensor values, not Kd); 0.1 M PBS pH 7.0, 5 uM aptamer for immobilization, 30 min tau381 incubation, DPV -0.6 to 0.2 V; EIS in 10 mM [Fe(CN)6]3-/4-; temperature not stated. As to conditions: protein: commercial.

tau381 (1N3R as printed), sequence (P10636 other isoform, or with tags, fused parts or gaps): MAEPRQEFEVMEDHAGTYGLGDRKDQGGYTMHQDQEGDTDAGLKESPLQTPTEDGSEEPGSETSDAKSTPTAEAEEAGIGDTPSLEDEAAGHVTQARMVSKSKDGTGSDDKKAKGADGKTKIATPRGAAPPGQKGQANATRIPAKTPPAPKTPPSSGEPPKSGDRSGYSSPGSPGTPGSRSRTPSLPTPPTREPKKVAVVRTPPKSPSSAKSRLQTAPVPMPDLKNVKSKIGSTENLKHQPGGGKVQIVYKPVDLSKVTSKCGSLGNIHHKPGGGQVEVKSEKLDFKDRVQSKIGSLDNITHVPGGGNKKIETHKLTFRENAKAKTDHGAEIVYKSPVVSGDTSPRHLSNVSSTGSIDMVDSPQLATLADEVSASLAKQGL

GCGGAGCGTGGCAGG (ssDNA, 5'-H2N) [tau381 aptamer (5'-amino)]: the binding result is “binds”.

The values above are taken from article PMC6784373, “Development of a Label-Free Electrochemical Aptasensor for the Detection of Tau381 and its Preliminary Application in AD and Non-AD Patients’ Sera”.
